Entries after “also recorded” stand apart in the source; their conditions may differ.
Tests used:
[1] = target: T1, VP16/VP22trunc interaction (Human herpesvirus 1, UniProt P06492); assay: ELISA of peptide inhibition of VP16 binding to VP22trunc; set-up: species or system HSV-1; conditions: for Inhibition of VP16 binding to VP22trunc in ELISA: D and E pure preparations, effect at 100 and 500 μg/ml, VP16 1.6 μg/ml, 160 ng VP22trunc, FIG. 9; for IC50: converted from μg/ml, maximum molarities, read-out: Molarity for 50% inhibition of VP16 binding (ELISA); for IC50 / Concentration for 50% inhibition of VP16 binding (ELISA): peptides not 100% soluble; for Concentration for 50% inhibition of VP16 binding (ELISA): pure peptide preparations, maximum values
T1 construct: Plasmid pETVP16 was used to express full-length VP16 under the control of the T7 RNA polymerase promoter; made in house; host or cells: E. coli BL21(DE3)
T1 sequence (P06492 whole entry): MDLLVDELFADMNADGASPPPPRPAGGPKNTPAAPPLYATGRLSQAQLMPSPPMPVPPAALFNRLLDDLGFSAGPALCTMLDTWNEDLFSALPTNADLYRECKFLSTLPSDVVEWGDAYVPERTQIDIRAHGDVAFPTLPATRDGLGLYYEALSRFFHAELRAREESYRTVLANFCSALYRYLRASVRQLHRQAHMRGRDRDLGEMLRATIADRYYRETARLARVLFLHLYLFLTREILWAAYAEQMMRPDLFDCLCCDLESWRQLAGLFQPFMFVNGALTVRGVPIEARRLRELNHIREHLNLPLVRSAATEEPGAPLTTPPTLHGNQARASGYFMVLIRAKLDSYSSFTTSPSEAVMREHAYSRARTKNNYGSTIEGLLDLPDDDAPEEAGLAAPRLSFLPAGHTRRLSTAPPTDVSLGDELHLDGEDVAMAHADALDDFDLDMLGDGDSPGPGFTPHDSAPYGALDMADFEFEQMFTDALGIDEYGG
Description: FIG. 9 Inhibitory effect of peptides D and E on the VP22trunc-VP16 interaction in ELISAs. Microtitre plates were coated with 160 ng of VP22trunc and blocked with PBS/10% NCS. Before addition to the wells, five-fold dilutions of the peptides, ranging from 500 μg/ml to 1 g/ml, were incubated with VP16 (1.6 μg/ml). Bound VP16 was detected with LP1 at a dilution of 1:1000. The legend for the peptides added is shown to the right of the graph. Values are shown relative to those obtained in the absence of the peptide.
(§1) Dilutions of proteins in PBS were coated overnight onto flat bottomed micro-titre plates (Dynatech) at 37° C. and then blocked with either 2% BSA or 10% new-born calf serum (NCS) in PBS for 1 hour at 37° C. Specific binding of a second protein to the plate-bound protein was performed for 1.5-2 hours at ambient temperature. a Excess secondary protein was removed by washing four times with PBS, 0.3% Tween 20. Bound protein was detected by incubation for 1.5-2 hours with LP1 antibody in PBS, 1% gelatin or PBS, 2% NCS. The bound antibody was detected by incubation for 1 hour at ambient temperature with anti-mouse antibody conjugated to HRP (1:500) and visualised with Smg/ml enzyme substrate 2,2'-azino-bis(3-ethylbenzthiazoline-6-sulphonic acid) (ABTS; Sigma) in citrate-phosphate buffer containing 6 μl hydrogen peroxide in a total volume of 20 ml. Optical densities were measured on a Titertek Multiscan PLUS instrument.
To adopt a more quantitative approach, an ELISA for VP16 binding to VP22trunc was developed. Optimal conditions were determined by coating wells with various quantities of VP22trunc followed by blocking with 2% BSA. Plates were then incubated with dilutions of VP16 and the bound VP16 detected with LP1.
The studies presented above have provided strong evidence in support of peptide inhibition of the interaction between VP16 and VP22. However, quantitative analysis of the ability of peptides to block any interaction is difficult to perform by the above methods. Therefore, using the ELISA system described in Results Section 2(iii) with the exception that PBS/10% NCS was utilised as a blocking agent, the inhibitory effects of peptides D and E were examined. This modification arose due to nonspecific binding of the peptides to wells when BSA was used for blocking (data not shown).

[2] = Solubility of synthetic peptides in buffer; assay type: physicochemical; conditions: for Solubility following purification: HPLC-purified peptides; for Solubility: peptides dissolved in 20 mM Tris-HCl, pH 8.0, 250 mM NaCl, unpurified preparations
Description: Synthesis and Purification of Oligopeptides. Peptides were synthesised by continuous flow Fmoc chemistry (Atherton and Sheppard, 1989; McLean et al., 1991) and, where stated in the text, were purified by preparative reverse-phase HPLC (Owsianka et al., 1993). The Mr values of peptides were determined by fast atom bombardment mass spectrometry (M-Scan) and corresponded to the predicted values. Peptides were dissolved in 20 mM Tris-HCl, pH 8.0, 250 mM NaCl and centrifuged at 11,500 g for 1 minute prior to use. […] Precipitates were removed by centrifugation before use.

VP16 = target: T2, VP16 (Human herpesvirus 1, UniProt P06492); assay: ELISA of direct binding of VP16 to plate-coated peptides; set-up: species or system HSV-1; conditions: wells coated with peptide up to 500 μg/ml; VP16 1.6 μg/ml; FIG. 10
T2 construct: Plasmid pETVP16 was used to express full-length VP16 under the control of the T7 RNA polymerase promoter; made in house; host or cells: E. coli BL21(DE3)
T2 sequence (P06492 whole entry): as above
Description: FIG. 10 Binding of VP16 to peptides. Microtitre plates were coated with 5-fold dilutions of peptides ranging from 500 μg/ml to 1 μg/ml and blocked with PBS/10% NCS. VP16 was then added to a final concentration of 1.6 μg/ml and detected with LP1. The legend for the peptides added is shown to the right of the graph.
as §1
To examine whether VP16 could bind directly to the peptides, wells were coated with each peptide (A-J) at a range of concentrations from […] to 500 μg/ml and the plate was then blocked with […]. […] Nonetheless, the data for peptides D and E implicate direct binding of these peptides to VP16 as the mechanism for inhibiting its interaction with VP22. Peptide H also was active in experiments which prevented gB binding to VP22trunc [Section 4 (iii)] and thus also forms an aspect of the invention.

[3] = target: T3, VP16/full-length VP22 interaction (Human herpesvirus 1, UniProt P06492); assay: Far Western analysis of peptides blocking VP16 binding to full-length VP22 (vUL49ep L-particle extract); set-up: species or system HSV-1; conditions: strips pre-incubated with 1 mg peptide, FIG. 8
T3 construct: Plasmid pETVP16 was used to express full-length VP16 under the control of the T7 RNA polymerase promoter; made in house; host or cells: VP16: E. coli BL21(DE3); VP22: L-particles of recombinant virus vUL49ep grown in BHK cells
T3 sequence (P06492 whole entry): as above
Description: FIG. 8 Blocking of the interaction between VP16 and full length VP22 by pure peptides D and E. A vUL49ep L-particle extract was run on a 10% polyacrylamide gel and the proteins transferred to a nitrocellulose membrane. The blot was cut into strips, with each strip containing the equivalent of approximately 3×10^9 L-particles. Strips were pre-incubated with 1 mg of each of the following peptides: lane 2, no peptide; lane 3, peptide C; lane 4, peptide D; lane 5, peptide E. 2 μg of pure VP16 was then added to each incubation and bound VP16 was detected by LP1 antibody. Two strips were incubated with either LPl (lane 1) or 9220 antibody (lane 6), each at a dilution of 1:1000. The apparent molecular weights of VP16 (65 KDa) and tagged VP22 (40 KDa) are shown.
Following electrophoresis, proteins were electrotransferred to either Hybond or ProBlott (Applied Biosystems) membrane and the membrane was incubated in renaturation buffer (50 mM Tris-HCl, pH 8.0, 150 mM NaCl, 10% glycerol, 1 mM DTT) at 4° C. for 5-6 hours.
For membranes probed with either VP16 or VP22trunc, blocking was performed overnight as described for Western blot analysis. Probing with epitope-tagged VP22 or VP16 was performed in 20 mM Tris-HCl, pH 8.0, 250 mM NaCl for 1.5 hours at ambient temperature. Excess probe was removed by washing 4 times (10 minutes per wash) in 20 mM Tris-HCl, pH8.0, 250 mM NaCl, followed by incubation with the appropriate antibody at a dilution of 1:1000 in TTBS/1% gelatin for 1.5-2 hours. Bound antibody was detected as described for Western blot analysis.
The results presented thus far have established that peptides D and E block the interaction between VP16 and VP22trunc. The inhibitory effect of the peptides was further tested to examine whether they were capable of blocking the interaction of VP16 with full-length VP22.

Sequence | Inhibition of VP16 binding to VP22trunc in ELISA [1] | IC50 [1] [µM] | Concentration for 50% inhibition of VP16 binding (ELISA) [1] [µg/mL] | Solubility following purification [2] | Solubility [2] | Direct binding of VP16 to plate-coated peptide (ELISA) (VP16) | Blocking of VP16 binding to full-length VP22 (Far Western) [3]
CAAVGRLAAMHARMAAVQLW [Peptide E] | could inhibit binding of VP16 to VP22trunc | 44.1 | 85.7 | not 100% soluble | partly; also recorded: partially insoluble | binding was found with higher concentrations | completely blocks binding of VP16 to VP22
FSTAPPNPDAPWTPRVAGFN [Peptide C] | neither peptides B, C nor F had any effect |  |  |  | soluble | binding did not occur | does not hinder the interaction
TPRVAGFNKRVFCAAVGRLA [Peptide D] | could inhibit binding of VP16 to VP22trunc | 99.7 | 212.5 | not 100% soluble | partly; also recorded: partially insoluble | binding was found with higher concentrations | completely blocks binding of VP16 to VP22

From patent publication US6200577A, “Anti-herpesviral agents and assays therefor” (priority 1996, dated 2001)
